Results reported in article PMC9784774.

How the values were obtained:
Experiment in all cases: SPR; Biacore X100, CM5 chip, RT, 1:1 binding model; methods: antibody (4 μg/mL) captured by anti-human Fc IgG to about 100 RU, pentamer or trimer in five 2-fold dilutions injected at 30 μL/min, 90 s association, 600 s dissociation (the legend of Fig. 5 tells the reverse orientation)
[1] = target: pentamer mutant UL128_T94A (human cytomegalovirus | human cytomegalovirus strain VR1814)
[2] = target: pentamer mutant UL131A_K27A (human cytomegalovirus | human cytomegalovirus strain VR1814)
[3] = target: pentamer mutant UL128_K47A (human cytomegalovirus | human cytomegalovirus strain VR1814)
[4] = target: pentamer mutant UL131A_E23A (human cytomegalovirus | human cytomegalovirus strain VR1814)

B1: MAb 9I6 (antibody, V domains shown)
VH: EVQLVQSGAEVKKPGESLKISCRESGDTFPAYWIAWVRQMPGKGLEWMGIIYPIDSETTYSPSFQGQVTISADKSINTAYLQWSSLKASDSAIYYCARGTSTGLREAFHIWGQGTMVTVSS
VL: DVVMTQSPLSLAVTLGQPAYISCRSSQSLGYSDGNTYLNWFQQRPGQSPRRLIYEVSNRDSGVPDRFSGSGSGTDFTLKISRVEAEDVGTYYCMQGTHWPPMCSFGQGTKLEIK
Kd [1]: 0.57 nM | koff [1]: 3e-05 s⁻¹ | kon [1]: 53100 M⁻¹ s⁻¹ | Kd [2]: 1.91 nM | koff [2]: 0.000181 s⁻¹ | kon [2]: 94700 M⁻¹ s⁻¹ | Kd [3]: 1.5 nM | koff [3]: 7.38e-05 s⁻¹ | kon [3]: 49200 M⁻¹ s⁻¹ | Kd [4]: 2.83 nM | koff [4]: 0.000115 s⁻¹ | kon [4]: 40700 M⁻¹ s⁻¹
